Broadly, the Kd is the concentration at which binding is half-saturated.

These results are taken from paper PMC5394233, “Structural and functional analysis of the human POT1-TPP1 telomeric complex” (Nature Communications, 2017).

Common to all, as to experiment: fluorescence polarization; FP: 20 mM Hepes pH 7.5, 100 mM KCl, 2 mM MgCl2, 1 mM EDTA, 2 mM DTT, 1 mg/ml BSA, 5% glycerol, 75 nM polyT50 competitor, 2.5 nM probe, room temperature 30 min
For orientation: Fluorescence polarisation rises when a labelled molecule tumbles more slowly, as on binding a larger partner.

The target of one data set is flPOT1 P475L;TPP1(87) (Homo sapiens;Homo sapiens, UniProt Q9NUX5;Q96AP0 1-634;1-458, P475L|). The note with it: protein: recombinant;recombinant, tags: N-terminal His6-pMocr, TEV-cleaved;N-terminal His6-MBP, copies: 1;1, label: 5' 6-FAM, single strand.
Another data set has as its target flPOT1 P446Q;TPP1(87) (Homo sapiens;Homo sapiens, UniProt Q9NUX5;Q96AP0 1-634;1-458, P446Q|). The note with it: protein: recombinant;recombinant, tags: N-terminal His6-pMocr, TEV-cleaved;N-terminal His6-MBP, copies: 1;1, label: 5' 6-FAM, single strand.
The target in another data set is T1, flPOT1 WT (Homo sapiens, UniProt Q9NUX5 1-634).
T1 sequence: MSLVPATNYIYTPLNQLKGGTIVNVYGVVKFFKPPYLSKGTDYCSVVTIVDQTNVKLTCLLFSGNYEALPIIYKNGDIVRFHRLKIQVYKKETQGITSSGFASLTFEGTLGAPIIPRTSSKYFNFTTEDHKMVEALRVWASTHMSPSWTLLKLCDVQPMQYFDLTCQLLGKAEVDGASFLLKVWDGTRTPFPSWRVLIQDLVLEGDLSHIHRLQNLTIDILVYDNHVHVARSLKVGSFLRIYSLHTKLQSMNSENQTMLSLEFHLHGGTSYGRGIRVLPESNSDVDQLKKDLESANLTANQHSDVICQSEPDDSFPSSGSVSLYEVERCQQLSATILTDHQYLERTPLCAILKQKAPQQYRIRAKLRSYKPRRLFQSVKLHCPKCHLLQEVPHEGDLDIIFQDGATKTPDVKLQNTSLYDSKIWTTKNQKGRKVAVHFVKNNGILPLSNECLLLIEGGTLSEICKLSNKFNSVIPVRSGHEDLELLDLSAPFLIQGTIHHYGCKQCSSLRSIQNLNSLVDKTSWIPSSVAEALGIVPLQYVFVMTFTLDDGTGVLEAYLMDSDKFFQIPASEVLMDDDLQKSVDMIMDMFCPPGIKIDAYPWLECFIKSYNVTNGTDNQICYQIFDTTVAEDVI
The note with it: protein: recombinant; tags: N-terminal His6-pMocr, TEV-cleaved; label: 5' 6-FAM; single strand.

A further data set concerns the target T2, POT1C (Homo sapiens, UniProt Q9NUX5 330-634).
T2 sequence: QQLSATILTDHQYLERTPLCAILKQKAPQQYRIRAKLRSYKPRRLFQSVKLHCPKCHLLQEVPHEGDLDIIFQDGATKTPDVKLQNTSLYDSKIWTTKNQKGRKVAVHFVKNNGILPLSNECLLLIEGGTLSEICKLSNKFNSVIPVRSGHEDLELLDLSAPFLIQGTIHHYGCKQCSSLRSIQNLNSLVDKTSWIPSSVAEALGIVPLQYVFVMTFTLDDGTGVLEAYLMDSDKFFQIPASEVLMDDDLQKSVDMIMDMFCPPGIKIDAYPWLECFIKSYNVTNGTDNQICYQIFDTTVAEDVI
The note with it: protein: recombinant; tags: N-terminal His6-pMocr, TEV-cleaved; label: 5' 6-FAM; single strand.

The next data set concerns the target flPOT1 C591W;TPP1(87) (Homo sapiens;Homo sapiens, UniProt Q9NUX5;Q96AP0 1-634;1-458, C591W|). The note with it: protein: recombinant;recombinant, tags: N-terminal His6-pMocr, TEV-cleaved;N-terminal His6-MBP, copies: 1;1, label: 5' 6-FAM, single strand.
For a further data set, the target named is T3, flPOT1 C591W (Homo sapiens, UniProt Q9NUX5 1-634, C591W).
T3 sequence: T1 sequence with C591W
The note with it: protein: recombinant; tags: N-terminal His6-pMocr, TEV-cleaved; label: 5' 6-FAM; single strand.

Residue numbers refer to the chain shown, from its start.

Chain of flPOT1 P475L;TPP1(87) (Q9NUX5 whole entry P475L, chain 1 of 2): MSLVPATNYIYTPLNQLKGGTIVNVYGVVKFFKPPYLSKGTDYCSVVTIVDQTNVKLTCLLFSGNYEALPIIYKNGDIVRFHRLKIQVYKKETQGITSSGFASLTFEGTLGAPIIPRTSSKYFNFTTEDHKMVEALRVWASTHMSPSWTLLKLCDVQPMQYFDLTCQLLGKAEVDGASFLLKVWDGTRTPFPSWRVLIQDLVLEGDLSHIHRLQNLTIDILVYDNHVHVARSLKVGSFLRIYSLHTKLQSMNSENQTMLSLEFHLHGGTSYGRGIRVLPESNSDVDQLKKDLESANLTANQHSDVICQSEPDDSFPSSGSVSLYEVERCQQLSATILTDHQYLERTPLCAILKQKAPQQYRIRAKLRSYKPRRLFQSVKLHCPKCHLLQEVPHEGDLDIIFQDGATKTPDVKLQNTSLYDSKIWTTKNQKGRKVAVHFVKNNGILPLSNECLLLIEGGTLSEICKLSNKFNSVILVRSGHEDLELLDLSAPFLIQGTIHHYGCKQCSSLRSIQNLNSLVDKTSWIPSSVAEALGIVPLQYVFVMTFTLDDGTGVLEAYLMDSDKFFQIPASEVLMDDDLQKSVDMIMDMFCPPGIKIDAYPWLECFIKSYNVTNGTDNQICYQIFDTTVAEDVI
Chain of flPOT1 P475L;TPP1(87) (Q96AP0 whole entry, chain 2 of 2): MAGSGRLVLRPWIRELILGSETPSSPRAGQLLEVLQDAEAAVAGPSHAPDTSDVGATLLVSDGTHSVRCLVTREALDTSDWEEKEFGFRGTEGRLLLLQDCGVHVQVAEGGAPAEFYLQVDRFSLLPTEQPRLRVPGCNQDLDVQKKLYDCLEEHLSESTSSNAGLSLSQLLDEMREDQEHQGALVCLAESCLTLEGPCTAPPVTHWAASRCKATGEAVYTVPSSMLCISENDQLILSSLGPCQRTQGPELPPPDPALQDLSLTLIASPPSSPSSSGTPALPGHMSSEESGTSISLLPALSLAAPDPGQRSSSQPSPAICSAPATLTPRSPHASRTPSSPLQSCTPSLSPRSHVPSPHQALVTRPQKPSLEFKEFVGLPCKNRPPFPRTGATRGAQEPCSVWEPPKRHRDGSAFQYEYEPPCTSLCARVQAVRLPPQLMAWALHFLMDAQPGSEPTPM
Chain of flPOT1 C591W;TPP1(87) (Q9NUX5 whole entry C591W, chain 1 of 2): as the sequence (Q9NUX5 whole entry P475L, chain 1 of 2) above, with L475P, C591W counted along it
Chain of flPOT1 C591W;TPP1(87) (Q96AP0 whole entry, chain 2 of 2): as the sequence (Q96AP0 whole entry, chain 2 of 2) above
Chain of flPOT1 P446Q;TPP1(87) (Q9NUX5 whole entry P446Q, chain 1 of 2): as the sequence (Q9NUX5 whole entry P475L, chain 1 of 2) above, with P446Q, L475P counted along it
Chain of flPOT1 P446Q;TPP1(87) (Q96AP0 whole entry, chain 2 of 2): as the sequence (Q96AP0 whole entry, chain 2 of 2) above

B1: telomeric 18mer (TTAGGG)3 (ssDNA)
DNA: TTAGGGTTAGGGTTAGGG
Regarding B1, the Kd is 10.7 ± 1.4 nM with flPOT1 P475L;TPP1(87); 10.3 ± 1 nM in the data set with flPOT1 P446Q;TPP1(87); approximately 20 nM with flPOT1 WT; 15.6 ± 2.5 nM in the data set with flPOT1 C591W;TPP1(87); approximately 20 nM in the data set with flPOT1 C591W. Further, the binding result in the data set with POT1C is “no binding”.
